Source: the supplement of paper PMC10065799, “High-throughput profiling of sequence recognition by tyrosine kinases and SH2 domains using bacterial peptide display” (eLife, 2023)

How the values were obtained:
AncSZ = experiment: phosphorylation enrichment, bacterial display (enrichment ratio); higher = better substrate or ligand; peptides without Tyr show the background
EPHB1 = EPHB1 (UniProt P54762); experiment: as above
EPHB2 = EPHB2 (UniProt P29323); experiment: as above
FGFR1 = FGFR1 (UniProt P11362); experiment: as above
FGFR3 = FGFR3 (UniProt P22607); experiment: as above
FGFR3, sequence (P22607 whole entry, looked up): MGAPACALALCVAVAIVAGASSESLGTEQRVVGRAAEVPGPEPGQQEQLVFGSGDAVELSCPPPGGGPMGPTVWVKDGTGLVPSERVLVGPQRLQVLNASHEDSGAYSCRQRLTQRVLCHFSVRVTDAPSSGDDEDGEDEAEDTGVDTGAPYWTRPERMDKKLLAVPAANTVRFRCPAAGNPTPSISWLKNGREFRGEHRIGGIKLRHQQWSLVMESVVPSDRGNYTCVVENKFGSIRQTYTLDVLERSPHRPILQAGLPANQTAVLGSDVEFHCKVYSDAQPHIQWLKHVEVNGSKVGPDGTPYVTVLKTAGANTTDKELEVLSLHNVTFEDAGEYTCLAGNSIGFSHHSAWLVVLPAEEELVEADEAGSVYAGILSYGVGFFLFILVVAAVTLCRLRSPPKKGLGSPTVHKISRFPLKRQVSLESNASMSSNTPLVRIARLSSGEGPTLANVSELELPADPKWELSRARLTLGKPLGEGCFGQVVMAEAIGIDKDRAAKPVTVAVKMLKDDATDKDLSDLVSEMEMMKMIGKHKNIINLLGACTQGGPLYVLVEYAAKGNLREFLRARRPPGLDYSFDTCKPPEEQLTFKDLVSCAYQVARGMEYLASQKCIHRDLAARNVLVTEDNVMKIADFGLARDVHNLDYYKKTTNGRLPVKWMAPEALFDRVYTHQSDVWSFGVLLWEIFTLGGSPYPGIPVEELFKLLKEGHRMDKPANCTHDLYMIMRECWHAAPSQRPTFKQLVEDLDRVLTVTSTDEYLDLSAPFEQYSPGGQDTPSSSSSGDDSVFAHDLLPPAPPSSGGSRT

Fer (mouse) = experiment: as above
Fes = Fes (UniProt P07332); experiment: as above
Fyn = Fyn (UniProt P06241); experiment: as above
Hck = Hck (UniProt P08631); experiment: as above
Hck, sequence (P08631 whole entry, looked up): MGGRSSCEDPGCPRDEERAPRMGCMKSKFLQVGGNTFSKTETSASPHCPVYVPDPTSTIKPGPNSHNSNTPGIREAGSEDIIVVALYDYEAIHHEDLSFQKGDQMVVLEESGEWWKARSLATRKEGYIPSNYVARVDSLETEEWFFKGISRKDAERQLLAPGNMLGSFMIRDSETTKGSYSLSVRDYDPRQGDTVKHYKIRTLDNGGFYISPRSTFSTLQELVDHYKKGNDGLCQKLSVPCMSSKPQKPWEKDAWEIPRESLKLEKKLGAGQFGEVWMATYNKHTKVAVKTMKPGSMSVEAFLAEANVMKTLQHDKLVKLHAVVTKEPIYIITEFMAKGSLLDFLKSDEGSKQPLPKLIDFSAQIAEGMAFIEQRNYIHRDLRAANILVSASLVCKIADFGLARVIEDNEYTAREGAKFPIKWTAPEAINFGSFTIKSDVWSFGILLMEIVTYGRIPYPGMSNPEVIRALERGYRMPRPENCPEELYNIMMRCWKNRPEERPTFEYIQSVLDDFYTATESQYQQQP

Jak2 = Jak2 (UniProt O60674); experiment: as above
Jak2, sequence (O60674 whole entry, looked up): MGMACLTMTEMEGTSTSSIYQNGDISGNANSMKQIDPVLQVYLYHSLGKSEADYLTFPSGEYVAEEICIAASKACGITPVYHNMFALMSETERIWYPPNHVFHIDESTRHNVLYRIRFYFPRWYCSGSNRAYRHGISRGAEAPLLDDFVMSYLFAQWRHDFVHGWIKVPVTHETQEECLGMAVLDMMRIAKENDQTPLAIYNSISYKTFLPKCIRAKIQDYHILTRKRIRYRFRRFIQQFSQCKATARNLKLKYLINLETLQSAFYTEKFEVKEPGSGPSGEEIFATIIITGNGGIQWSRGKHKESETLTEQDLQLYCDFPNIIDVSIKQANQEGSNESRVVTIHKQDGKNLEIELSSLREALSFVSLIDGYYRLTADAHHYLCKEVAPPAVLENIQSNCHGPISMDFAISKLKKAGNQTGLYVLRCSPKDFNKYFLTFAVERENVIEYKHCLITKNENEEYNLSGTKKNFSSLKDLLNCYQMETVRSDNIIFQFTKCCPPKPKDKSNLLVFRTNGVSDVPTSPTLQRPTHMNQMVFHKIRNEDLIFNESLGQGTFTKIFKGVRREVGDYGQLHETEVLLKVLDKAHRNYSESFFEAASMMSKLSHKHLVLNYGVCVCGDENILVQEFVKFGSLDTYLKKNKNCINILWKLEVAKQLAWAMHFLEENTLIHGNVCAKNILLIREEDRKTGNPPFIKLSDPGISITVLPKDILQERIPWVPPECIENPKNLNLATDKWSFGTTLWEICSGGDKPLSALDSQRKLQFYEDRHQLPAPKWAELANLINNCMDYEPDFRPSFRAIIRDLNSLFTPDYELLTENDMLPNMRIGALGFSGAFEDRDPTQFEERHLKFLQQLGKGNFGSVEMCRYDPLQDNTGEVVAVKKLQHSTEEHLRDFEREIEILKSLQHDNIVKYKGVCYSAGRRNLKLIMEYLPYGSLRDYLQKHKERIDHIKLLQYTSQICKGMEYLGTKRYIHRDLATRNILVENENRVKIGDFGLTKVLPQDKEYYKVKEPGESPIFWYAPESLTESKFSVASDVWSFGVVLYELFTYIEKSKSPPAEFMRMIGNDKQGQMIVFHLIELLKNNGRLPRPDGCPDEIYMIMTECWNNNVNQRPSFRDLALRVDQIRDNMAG

MERTK = MERTK (UniProt Q12866); experiment: as above
c-Abl (mouse) = experiment: as above
c-Src = experiment: as above
Grb2 SH2 = Grb2 SH2 (UniProt P62993); experiment: SH2 binding enrichment of the phosphorylated peptide, bacterial display (enrichment ratio); higher = better substrate or ligand; peptides without Tyr show the background
Grb2 SH2, sequence (P62993 whole entry, looked up): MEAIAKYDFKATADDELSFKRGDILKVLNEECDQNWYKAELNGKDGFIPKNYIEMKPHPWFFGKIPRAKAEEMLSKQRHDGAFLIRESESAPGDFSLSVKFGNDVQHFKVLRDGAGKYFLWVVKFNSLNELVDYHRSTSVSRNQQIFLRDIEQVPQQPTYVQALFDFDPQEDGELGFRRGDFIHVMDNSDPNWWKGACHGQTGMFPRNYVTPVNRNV

SHP2-C SH2 = experiment: as above
c-Src SH2 = experiment: as above
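Wherever SH2 binding enrichment of the phosphorylated peptide, bacterial display is given: peptide library displayed on the E. coli surface as eCPX fusions, selected cells deep-sequenced, score is each peptide's frequency after selection divided by its frequency in the input.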
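Wherever phosphorylation enrichment, bacterial display is given: 11-residue human phosphosite peptides and single-mutation variants displayed on the E. coli surface, counted by deep sequencing, each peptide's frequency after selection divided by its frequency in the unselected input library; frequency after pTyr selection over input frequency; kinase dosed for 20-30% of maximal phosphorylation in three min.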

EPHB2, sequence (P29323 whole entry, looked up): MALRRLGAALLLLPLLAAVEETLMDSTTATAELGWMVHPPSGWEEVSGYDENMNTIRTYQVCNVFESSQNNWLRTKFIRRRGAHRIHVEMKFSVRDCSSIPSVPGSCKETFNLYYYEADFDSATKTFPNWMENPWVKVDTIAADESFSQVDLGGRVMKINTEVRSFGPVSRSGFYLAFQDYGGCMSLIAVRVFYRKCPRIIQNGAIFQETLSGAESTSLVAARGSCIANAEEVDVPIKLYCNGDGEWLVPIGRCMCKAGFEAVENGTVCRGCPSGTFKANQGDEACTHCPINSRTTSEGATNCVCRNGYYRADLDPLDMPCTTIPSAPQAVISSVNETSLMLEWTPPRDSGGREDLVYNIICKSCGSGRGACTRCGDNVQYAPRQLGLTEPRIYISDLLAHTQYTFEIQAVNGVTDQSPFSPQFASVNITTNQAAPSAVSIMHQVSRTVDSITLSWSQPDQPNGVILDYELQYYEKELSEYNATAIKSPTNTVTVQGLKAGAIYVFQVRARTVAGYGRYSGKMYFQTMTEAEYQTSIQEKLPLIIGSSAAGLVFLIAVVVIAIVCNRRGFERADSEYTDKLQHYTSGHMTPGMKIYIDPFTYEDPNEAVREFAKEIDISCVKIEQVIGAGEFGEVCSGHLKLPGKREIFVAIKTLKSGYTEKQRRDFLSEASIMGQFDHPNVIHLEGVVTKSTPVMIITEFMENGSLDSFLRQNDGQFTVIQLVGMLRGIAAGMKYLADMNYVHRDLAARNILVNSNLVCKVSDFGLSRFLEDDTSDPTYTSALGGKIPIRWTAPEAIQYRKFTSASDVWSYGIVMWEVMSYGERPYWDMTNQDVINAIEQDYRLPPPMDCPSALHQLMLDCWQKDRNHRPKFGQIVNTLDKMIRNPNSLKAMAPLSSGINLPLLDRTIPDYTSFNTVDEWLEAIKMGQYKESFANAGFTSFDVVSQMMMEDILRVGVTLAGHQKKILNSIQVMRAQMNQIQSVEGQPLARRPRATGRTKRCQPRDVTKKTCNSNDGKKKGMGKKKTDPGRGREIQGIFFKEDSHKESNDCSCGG
EPHB1, sequence (P54762 whole entry, looked up): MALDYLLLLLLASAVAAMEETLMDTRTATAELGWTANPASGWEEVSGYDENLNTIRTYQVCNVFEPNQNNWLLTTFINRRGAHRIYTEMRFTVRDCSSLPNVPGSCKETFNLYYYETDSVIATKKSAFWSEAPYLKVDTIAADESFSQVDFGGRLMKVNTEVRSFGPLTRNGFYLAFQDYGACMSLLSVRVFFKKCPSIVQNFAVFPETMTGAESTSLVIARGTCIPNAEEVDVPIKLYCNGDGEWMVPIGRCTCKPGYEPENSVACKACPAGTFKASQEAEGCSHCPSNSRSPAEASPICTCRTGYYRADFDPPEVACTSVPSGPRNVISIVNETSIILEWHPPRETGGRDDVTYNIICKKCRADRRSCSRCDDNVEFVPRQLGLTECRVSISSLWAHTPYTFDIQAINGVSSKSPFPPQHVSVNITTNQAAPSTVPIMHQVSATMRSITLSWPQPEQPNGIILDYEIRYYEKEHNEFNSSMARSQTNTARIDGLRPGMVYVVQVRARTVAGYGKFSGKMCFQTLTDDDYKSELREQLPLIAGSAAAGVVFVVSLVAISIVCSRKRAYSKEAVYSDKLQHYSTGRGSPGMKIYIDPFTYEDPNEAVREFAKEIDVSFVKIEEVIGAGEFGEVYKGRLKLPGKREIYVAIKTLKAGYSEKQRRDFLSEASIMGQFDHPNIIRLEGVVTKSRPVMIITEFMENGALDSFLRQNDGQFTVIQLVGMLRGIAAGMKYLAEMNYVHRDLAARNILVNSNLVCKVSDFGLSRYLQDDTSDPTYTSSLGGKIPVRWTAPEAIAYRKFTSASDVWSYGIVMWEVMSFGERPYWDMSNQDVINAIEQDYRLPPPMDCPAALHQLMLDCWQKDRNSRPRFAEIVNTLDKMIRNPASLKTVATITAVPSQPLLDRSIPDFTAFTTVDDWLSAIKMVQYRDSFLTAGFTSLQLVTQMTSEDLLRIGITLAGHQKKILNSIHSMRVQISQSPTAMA

Row | Sequence | phosphorylation enrichment (AncSZ) | phosphorylation enrichment (EPHB1) | phosphorylation enrichment (EPHB2) | phosphorylation enrichment (FGFR1) | phosphorylation enrichment (FGFR3) | phosphorylation enrichment (Fer (mouse)) | phosphorylation enrichment (Fes) | phosphorylation enrichment (Fyn) | phosphorylation enrichment (Hck) | phosphorylation enrichment (Jak2) | phosphorylation enrichment (MERTK) | phosphorylation enrichment (c-Abl (mouse)) | phosphorylation enrichment (c-Src) | SH2 binding enrichment (Grb2 SH2) | SH2 binding enrichment (SHP2-C SH2) | SH2 binding enrichment (c-Src SH2)
1 | IHFAIYLLKFS [ARMC9_Y107_YF] | 0.891 | 0.561 | 0.457 | 0.363 | 0.684 | 0.303 | 1.06 | 0.458 | 0.521 | 1.03 | 0.414 | 0.668 | 0.499 | 1.69 | 1.45 | 1.13
2 | IHHIDYYKKTT [FGFR1_Y653] | 0.783 | 0.408 | 0.544 | 0.473 | 0.484 | 0.961 | 0.741 | 0.381 | 0.425 | 0.534 | 0.508 | 0.524 | 0.487 | 0.793 | 1.22 | 0.567
3 | IHRWVYPLTPE [EIF2B5_Y319_R315H] | 1.03 | 0.525 | 0.503 | 0.488 | 0.698 | 0.405 | 0.918 | 0.511 | 0.487 | 0.885 | 0.487 | 0.621 | 0.446 | 1.25 | 1.29 | 1.06
4 | IIQRAYRRHLL [SCN1A_Y1926] | 0.845 | 0.479 | 0.433 | 0.499 | 0.525 | 0.497 | 0.619 | 0.509 | 0.576 | 0.491 | 0.608 | 0.552 | 0.584 | 0.769 | 0.381 | 0.439
5 | IIRQLYLKWHP [SACS_Y4333_R4331Q] | 0.888 | 0.469 | 0.444 | 0.473 | 0.604 | 0.4 | 1.02 | 0.38 | 1.12 | 1.01 | 1.08 | 0.608 | 0.509 | 1.77 | 1.59 | 1.47
6 | IITDFYVDMKF [MPP4_Y567_V562I_YF] | 1.31 | 1.41 | 1.08 | 1.37 | 1.39 | 0.953 | 1.66 | 0.527 | 0.722 | 1.75 | 0.511 | 0.905 | 0.58 | 0.799 | 0.906 | 0.452
7 | IKKLIYVHLVI [JAGN1_Y42] | 1.02 | 0.669 | 0.59 | 0.604 | 0.842 | 0.592 | 1.32 | 0.496 | 0.671 | 0.982 | 0.569 | 0.852 | 0.424 | 1.1 | 0.775 | 0.631
8 | IKNSGYISRFL [EIF2AK3_Y585_YF] | 0.564 | 0.366 | 0.455 | 0.367 | 0.495 | 0.286 | 0.669 | 0.348 | 0.379 | 0.61 | 0.44 | 0.537 | 0.43 | 1.24 | 1.1 | 0.793
9 | ILIFHYAKGQP [MPZ_Y82_S78L] | 1.32 | 0.753 | 0.705 | 0.612 | 0.85 | 0.819 | 1.37 | 0.504 | 0.674 | 1.01 | 0.475 | 0.904 | 0.508 | 1.47 | 1.27 | 1.1
10 | IMAYFYMCDSA [CASD1_Y382_R386S] | 1.38 | 0.845 | 0.643 | 2.24 | 2.25 | 0.597 | 1.5 | 0.523 | 0.51 | 1.93 | 0.505 | 1.07 | 0.69 | 1.08 | 0.702 | 0.677
11 | INMKKYCKKDY [NTN1_Y490] | 0.626 | 0.424 | 0.298 | 0.45 | 0.592 | 0.434 | 0.912 | 0.391 | 0.461 | 0.698 | 0.402 | 0.824 | 0.401 | 0.948 | 0.864 | 0.87
12 | INNKMYDPKMN [ENPP1_Y280_D276N] | 0.535 | 0.44 | 0.432 | 0.389 | 0.491 | 0.482 | 0.609 | 0.397 | 0.436 | 0.556 | 0.354 | 0.473 | 0.449 | 0.707 | 0.69 | 0.442
13 | IQKWEYVPLGT [FAH_Y244_P249T] | 0.954 | 0.768 | 0.532 | 1.06 | 0.723 | 0.416 | 0.866 | 0.475 | 0.428 | 1.23 | 0.328 | 0.564 | 0.384 | 0.837 | 0.497 | 0.817
14 | IRQDDYESLKE [MTR_Y921_H920D] | 1.32 | 0.633 | 0.553 | 0.5 | 0.608 | 0.463 | 1.15 | 0.455 | 0.571 | 1.13 | 0.474 | 1 | 0.533 | 0.907 | 0.707 | 0.514
15 | IRQGHYESLKE [MTR_Y921_D919G] | 0.573 | 0.392 | 0.34 | 0.419 | 0.567 | 0.652 | 0.768 | 0.466 | 0.519 | 0.85 | 0.457 | 0.443 | 0.45 | 0.951 | 0.765 | 5.48
16 | IRRIAYEFVEM [ADA_Y84_K80R] | 0.887 | 0.343 | 0.543 | 0.869 | 0.511 | 2.85 | 0.872 | 0.417 | 0.433 | 0.638 | 0.469 | 0.489 | 0.458 | 0.542 | 0.435 | 1.15
17 | ISIFFYAKGQP [MPZ_Y82_H81Y_YF] | 1.33 | 0.608 | 0.611 | 0.544 | 0.865 | 0.554 | 1.52 | 0.395 | 0.573 | 1.43 | 0.527 | 1.25 | 0.548 | 1.33 | 0.529 | 0.406

Row | Sequence | phosphorylation enrichment (AncSZ) | phosphorylation enrichment (EPHB1) | phosphorylation enrichment (EPHB2) | phosphorylation enrichment (FGFR1) | phosphorylation enrichment (FGFR3) | phosphorylation enrichment (Fer (mouse)) | phosphorylation enrichment (Fes) | phosphorylation enrichment (Fyn) | phosphorylation enrichment (Hck) | phosphorylation enrichment (Jak2) | phosphorylation enrichment (MERTK) | phosphorylation enrichment (c-Abl (mouse)) | phosphorylation enrichment (c-Src) | SH2 binding enrichment (Grb2 SH2) | SH2 binding enrichment (SHP2-C SH2) | SH2 binding enrichment (c-Src SH2)
18 | ISPPVYLTNEW [NRK_Y885] | 1.13 | 0.694 | 0.724 | 0.704 | 0.718 | 0.698 | 1.09 | 0.825 | 0.732 | 1.1 | 0.542 | 0.92 | 0.766 | 1.03 | 1.11 | 0.655
19 | ISRASYFRKGG [ALK_Y1282_Y1278S_YF] | 0.664 | 0.4 | 0.37 | 0.341 | 0.388 | 0.456 | 0.724 | 0.419 | 0.435 | 0.59 | 0.469 | 0.597 | 0.506 | 0.755 | 0.484 | 0.45
20 | ISSLPYMKMIF [SLC4A11_Y853_M848I] | 1.05 | 0.536 | 0.547 | 0.696 | 0.665 | 1.11 | 1.07 | 0.457 | 0.677 | 1.35 | 0.668 | 0.872 | 0.79 | 1.19 | 1.52 | 1.61
21 | ISTAGYSIPEL [EDAR_Y406] | 0.807 | 0.525 | 0.464 | 0.416 | 0.697 | 0.436 | 0.92 | 0.397 | 0.534 | 0.745 | 0.713 | 1.46 | 0.457 | 0.796 | 0.893 | 7.33
22 | ITLKGYNLSNS [GNPTAB_Y728_K732N] | 0.66 | 0.385 | 0.487 | 0.525 | 0.618 | 0.433 | 0.639 | 0.488 | 0.477 | 0.547 | 0.381 | 0.466 | 0.448 | 1.05 | 0.884 | 0.627
23 | KAALSYVSEIG [BPIFB2_Y36] | 0.555 | 0.352 | 0.385 | 0.456 | 0.558 | 0.387 | 0.636 | 0.364 | 0.476 | 0.668 | 0.326 | 0.453 | 0.372 | 0.914 | 0.58 | 0.457
24 | KASGKYFAMKI [AKT3_Y173_YF] | 0.495 | 0.372 | 0.338 | 0.347 | 0.421 | 0.34 | 0.626 | 0.344 | 0.323 | 0.508 | 0.367 | 0.447 | 0.351 | 1.37 | 1.45 | 1.21
25 | KASIMYPSSNC [CXCL11_Y52_N55S] | 0.629 | 0.411 | 0.48 | 0.455 | 0.467 | 0.452 | 0.653 | 0.434 | 0.429 | 0.522 | 0.395 | 0.497 | 0.397 | 0.943 | 0.7 | 0.565
26 | KDFNKYVAFIE [KDM4B_Y31_YF] | 0.799 | 0.43 | 0.429 | 0.399 | 0.581 | 0.434 | 0.836 | 0.513 | 0.505 | 0.744 | 0.424 | 0.629 | 0.456 | 0.864 | 1.02 | 1.42
27 | KDHPDYKYQAR [SOX10_Y171_P175A] | 0.606 | 0.427 | 0.416 | 0.416 | 0.563 | 0.448 | 0.696 | 0.434 | 0.496 | 0.58 | 0.39 | 0.609 | 0.415 | 0.895 | 0.738 | 0.476
28 | KDPPDYKFQPR [SOX9_Y172_H169P_YF] | 0.811 | 0.343 | 0.44 | 0.427 | 0.527 | 0.449 | 0.789 | 0.439 | 0.414 | 0.719 | 0.461 | 0.626 | 0.43 | 0.928 | 0.791 | 0.609
29 | KDQPDYKFQPR [SOX9_Y172_H169Q_YF] | 0.666 | 0.348 | 0.402 | 0.422 | 0.529 | 0.381 | 0.678 | 0.382 | 0.386 | 0.491 | 0.46 | 0.457 | 0.434 | 1.2 | 0.829 | 0.675
30 | KEAQVYQAFRL [SUCLG2_Y343_K347R] | 0.576 | 1.23 | 0.62 | 0.743 | 0.581 | 14 | 0.677 | 14.2 | 14 | 0.661 | 4.78 | 19.6 | 11.3 | 0.768 | 0.541 | 0.486
31 | KFANSYRMEPL [TCTE3_Y87] | 0.574 | 0.43 | 0.409 | 0.443 | 0.491 | 0.465 | 0.623 | 0.47 | 0.414 | 0.774 | 0.417 | 0.534 | 0.528 | 0.861 | 0.762 | 0.653
32 | KFDLMYAKLAF [TUBA1A_Y399_R402L] | 0.818 | 0.726 | 0.619 | 0.49 | 0.676 | 0.632 | 1.13 | 1.26 | 4.61 | 0.811 | 3.23 | 0.716 | 3.04 | 1.07 | 7.45 | 1.73
33 | KFSNQYKATIG [RAB7A_Y37] | 0.528 | 0.47 | 0.311 | 0.351 | 0.411 | 0.463 | 0.613 | 0.41 | 0.44 | 0.538 | 0.4 | 0.471 | 0.485 | 0.948 | 1.01 | 0.656
